*1 amine or outer side, *2 acyl side, *3 side chain or, on linkers, in order; H or OH if unused. Bridges are numbered along the chain shown (N, C = ends). Primed or numbered codes have the meaning given here. Where no end group is shown, it is not given here. [ ]: non-standard residue; d: D form. Sar10″ = ten sarcosine residues, CN(CC(=O)N(C)CC(=O)N(C)CC(=O)N(C)CC(=O)N(C)CC(=O)[*:2])C(=O)CN(C)C(=O)CN(C)C(=O)CN(C)C(=O)CN(C)C(=O)CN(C)[*:1]; TATA = O=C(CC[*:1])N1CN(C(=O)CC[*:2])CN(C(=O)CC[*:3])C1; Hyp = O=C(O)[C@@H]1C[C@@H](O)CN1; hArg = N=C(N)NCCCC[C@H](N)C(=O)O; βAla = NCCC(=O)O

In this test the target is T1, Rat EphA2, biotinylated (in house) (Rat).
T1 construct: SPR target captured on streptavidin; also called Rat EphA2 (SPR)
T1 sequence (Q03145 other isoform, or with tags, fused parts or gaps): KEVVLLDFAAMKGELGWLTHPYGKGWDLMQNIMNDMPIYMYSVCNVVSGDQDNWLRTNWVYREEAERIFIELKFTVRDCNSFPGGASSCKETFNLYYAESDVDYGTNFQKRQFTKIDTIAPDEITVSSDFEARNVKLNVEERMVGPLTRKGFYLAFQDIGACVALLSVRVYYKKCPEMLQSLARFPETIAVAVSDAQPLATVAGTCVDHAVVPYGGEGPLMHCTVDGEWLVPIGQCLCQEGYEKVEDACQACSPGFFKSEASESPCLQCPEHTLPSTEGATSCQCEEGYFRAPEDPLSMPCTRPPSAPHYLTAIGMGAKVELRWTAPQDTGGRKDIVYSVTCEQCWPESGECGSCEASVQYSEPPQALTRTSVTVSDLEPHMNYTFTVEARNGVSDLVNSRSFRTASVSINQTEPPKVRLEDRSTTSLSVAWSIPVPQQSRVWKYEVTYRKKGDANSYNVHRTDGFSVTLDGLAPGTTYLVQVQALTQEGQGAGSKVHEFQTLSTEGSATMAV
Briefly: SPR (Biacore 3000), biotinylated rat EphA2 on streptavidin, 1:1 model. A general note: SPR reads the build-up and loss of mass on a sensor chip optically.

B1: BCY6136 (peptide)
peptide: [βAla][Sar10″]A[hArg]DC[Hyp]LVNPLCLHP[dD]W[hArg]C-NH2
modifications: linker 6-13-20 via TATA (inferred); also: conjugated to ValCit-MMAE linker/toxin, attachment site not given here
notes: also called BT5528
Usually Kd stands for the concentration at which binding is half-saturated. Low values mean a tighter complex, high ones a looser complex. With B1, the Kd was 2.96 nM and the t1/2 turned out to be 12.6 min.

B2: BCY6173 (peptide)
peptide: [βAla][Sar10″]A[hArg]DC[Hyp]LVNPLCLHP[dD]W[hArg]C-NH2
modifications: linker 6-13-20 via TATA (inferred); also: conjugated to DM1-SS(SO3H)- linker/toxin, attachment site not given here
B2 gave a Kd of 1.1 nM and a t1/2 of 12 min.

The values are drawn from patent US20230144799A1 (published 2023).
